Measured values published in patent US20240279288A1, “APPLICATION OF PLANT JAZ PROTEINS AND DERIVED POLYPEPTIDES IN PREVENTION AND TREATMENT OF HUMAN AND ANIMAL TUMORS” (ANYANG INSTITUTE OF SINO-COTTON INDUSTRY INNOVATION, priority 2021, published 2024).

Key:
ATF domain of uPA = target: T1, ATF domain of uPA (Homo sapiens, UniProt P00749); experiment: Yeast two hybrid with ATF domain of uPA; type: binding
T1 construct: expressed in transfected cells
Excerpt: […]
In order to explore how GhJAZ1 enters cancer cells, we cloned the genes of most tumor surface receptors, including uPAR (NCBI database accession number of NM_002659.4), CCK1R (NP_000721.1), CCK2R (NP_001350481.1), HER2 (NP_004439.2), GRPR (NP_005305.1), MUC1 (NP_001358649.1), VEGFR1 (NP_002010.2), Insulin receptor (NM_000208.4), NTR (XM_011528827.2), PSMA (XM_017017432.1), TFR1 (NM_001128148.3), TFR2 (NM_003227.4), PEPT1 (NM_005073.4), APN (NM_001150.3). […] We detected the interaction of GhJAZ1 with uPA (as the ligand of uPAR, NCBI database accession number of NP_002649.2) and uPAR by yeast two hybrid (the steps of the experiment as Example 3). […]

lung cancer cells A549 = experiment: CCK8 cell viability detection, A549; type: cell-based, human; conditions: CCK8, 24 h treatment; read-out: IC50, inhibition of A549 cells
Protocol: CCK8 cell viability detection: cell suspension was seeded in 96-well plates at a concentration of 5×10^4 cells/ml (100 μL/well). The plates were placed in the incubator for pre-culture (at 37° C., 5% CO2), and control and protein agents were added to each well 24 h after seeding. The plates were then placed in the incubator for 24 h, followed by addition of 10 μL CCK8 solution into each well and incubation of the plates in the incubator for 0.5-2 h before the absorbance measurement at 450 nm using a microplate reader.
Analysis of effect of GhJAZ1 protein on the cell cycle and apoptosis of tumor cells

B1: GhJAZ1: cotton JAZ1 protein, gene number Gh_A05G0260, sequence SEQ ID No. 4; prokaryotically expressed with His tag, about 30 KD (protein)
chain: MSSCSESTAMKPARSPEKPSFAQTCNLLSQYLKEKGSFGDLSLGMTCNVEANGTPVVPPPTMNLFPLNDKSDDVCGRNGGNPKNLTSMDLFPQQAGLASKDDSPNKLEPQTAPMTIFYGGQVIVFNDFPANKAKEIMLLASNSSSQSNNSFNPIPFTSSIARSPIESSIGVPPTSKPVHPAQRAVPGDLPIARRASLHRFLEKRKDRITAKAPYQINNSAAAPSLSGDNKSWLGLAAQSP
modifications: His tag
notes: prokaryotically expressed with His tag, about 30 KD
ATF domain of uPA
  interaction with the ATF domain of uPA: interacts
Lung cancer cells A549
  IC50: 697 nM
